Assay results: the supplement of paper PMC9112550, “Optimization of the antimicrobial peptide Bac7 by deep mutational scanning” (BMC Biology, 2022)

Tested on: Escherichia coli TOP10
Assay: shrunken log2 fold change of peptide-encoding DNA abundance (4.5 h post-induction vs induction); higher = less antimicrobial activity (less host growth inhibition)
Conditions: time post-induction: 4.5 h; library: site-saturation at positions 5, 18, 19, 20
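Also: peptides expressed intracellularly from a pBAD plasmid library in pooled LB shake-flask culture, induced with 0.3% L-arabinose, DNA abundance read by NGS, three biological replicates, DESeq2 with apeglm shrinkage.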

RRIRIRPPRLPRPRPRPCQQPRP
shrunken log2 fold change: -0.0169

RRIRVRPPRLPRPRPRPALDPRP
shrunken log2 fold change: 0.357

RRIRDRPPRLPRPRPRPEIQPRP
shrunken log2 fold change: 0.7

RRIRRRPPRLPRPRPRPRRHPRP
shrunken log2 fold change: 0.218

RRIRKRPPRLPRPRPRPEDMPRP
shrunken log2 fold change: 0.0387

RRIRPRPPRLPRPRPRPAWNPRP
shrunken log2 fold change: 0.396

RRIRTRPPRLPRPRPRPESHPRP
shrunken log2 fold change: -0.164

RRIRHRPPRLPRPRPRPEQDPRP
shrunken log2 fold change: 0.057

RRIRDRPPRLPRPRPRPVNNPRP
shrunken log2 fold change: 0.0566

RRIRERPPRLPRPRPRPVTGPRP
shrunken log2 fold change: -0.0257

RRIRGRPPRLPRPRPRPKTLPRP
shrunken log2 fold change: 0.872

RRIRGRPPRLPRPRPRPGHRPRP
shrunken log2 fold change: 0.263

RRIRRRPPRLPRPRPRPFSAPRP
shrunken log2 fold change: -0.274

RRIRPRPPRLPRPRPRPSVCPRP
shrunken log2 fold change: -0.273

RRIRNRPPRLPRPRPRPGVYPRP
shrunken log2 fold change: -0.241

RRIRARPPRLPRPRPRPPTPPRP
shrunken log2 fold change: 1.33

RRIRHRPPRLPRPRPRPPTNPRP
shrunken log2 fold change: 0.101

RRIRFRPPRLPRPRPRPYTKPRP
shrunken log2 fold change: -0.573

RRIRNRPPRLPRPRPRPELRPRP
shrunken log2 fold change: 0.0572

RRIRARPPRLPRPRPRPSIGPRP
shrunken log2 fold change: 0.111

RRIRMRPPRLPRPRPRPDRGPRP
shrunken log2 fold change: 0.367

RRIRVRPPRLPRPRPRPPICPRP
shrunken log2 fold change: -0.131

RRIRPRPPRLPRPRPRPPGQPRP
shrunken log2 fold change: 0.141

RRIRGRPPRLPRPRPRPAFAPRP
shrunken log2 fold change: 0.89

RRIRCRPPRLPRPRPRPSVTPRP
shrunken log2 fold change: -0.288

RRIRVRPPRLPRPRPRPTRNPRP
shrunken log2 fold change: 0.0987

RRIRHRPPRLPRPRPRPAQDPRP
shrunken log2 fold change: 0.0349

RRIRVRPPRLPRPRPRPWHGPRP
shrunken log2 fold change: -0.121

RRIRERPPRLPRPRPRPLHSPRP
shrunken log2 fold change: -0.0649

RRIRPRPPRLPRPRPRPWREPRP
shrunken log2 fold change: -0.00316

RRIRLRPPRLPRPRPRPPPRPRP
shrunken log2 fold change: 1.66

RRIRCRPPRLPRPRPRPMVWPRP
shrunken log2 fold change: 0.412

RRIRPRPPRLPRPRPRPQHVPRP
shrunken log2 fold change: 0.00743

RRIRPRPPRLPRPRPRPHADPRP
shrunken log2 fold change: -0.161

RRIRVRPPRLPRPRPRPKNMPRP
shrunken log2 fold change: -0.866

RRIRTRPPRLPRPRPRPAIHPRP
shrunken log2 fold change: -0.384

RRIRIRPPRLPRPRPRPDNDPRP
shrunken log2 fold change: -0.115

RRIRGRPPRLPRPRPRPWCMPRP
shrunken log2 fold change: 0.13

RRIRKRPPRLPRPRPRPAWWPRP
shrunken log2 fold change: 0.577

RRIRSRPPRLPRPRPRPEAWPRP
shrunken log2 fold change: 0.0495

RRIRKRPPRLPRPRPRPLNYPRP
shrunken log2 fold change: -0.217

RRIRGRPPRLPRPRPRPWMLPRP
shrunken log2 fold change: 0.0888

RRIRTRPPRLPRPRPRPKYMPRP
shrunken log2 fold change: -0.15

RRIRHRPPRLPRPRPRPGNKPRP
shrunken log2 fold change: -0.089

RRIRARPPRLPRPRPRPMYAPRP
shrunken log2 fold change: 0.207

RRIRYRPPRLPRPRPRPCGVPRP
shrunken log2 fold change: 2.83

RRIRNRPPRLPRPRPRPKFYPRP
shrunken log2 fold change: -0.83

RRIRLRPPRLPRPRPRPQGRPRP
shrunken log2 fold change: -0.136

RRIRHRPPRLPRPRPRPGICPRP
shrunken log2 fold change: -0.154

RRIRIRPPRLPRPRPRPIMWPRP
shrunken log2 fold change: -0.0162

RRIRTRPPRLPRPRPRPDMVPRP
shrunken log2 fold change: -0.00822

RRIRMRPPRLPRPRPRPFVQPRP
shrunken log2 fold change: -0.216

RRIRARPPRLPRPRPRPVELPRP
shrunken log2 fold change: 0.0828

RRIRCRPPRLPRPRPRPKRIPRP
shrunken log2 fold change: -0.143

RRIRHRPPRLPRPRPRPEKKPRP
shrunken log2 fold change: -0.00333

RRIRHRPPRLPRPRPRPRPQPRP
shrunken log2 fold change: 0.416

RRIRGRPPRLPRPRPRPCGVPRP
shrunken log2 fold change: 0.578

RRIRTRPPRLPRPRPRPWTRPRP
shrunken log2 fold change: 0.064

RRIRVRPPRLPRPRPRPQICPRP
shrunken log2 fold change: -0.185

RRIRYRPPRLPRPRPRPERMPRP
shrunken log2 fold change: -0.459

RRIRKRPPRLPRPRPRPKSGPRP
shrunken log2 fold change: 0.0187

RRIRVRPPRLPRPRPRPHDGPRP
shrunken log2 fold change: 0.0377

RRIRYRPPRLPRPRPRPNIFPRP
shrunken log2 fold change: -0.42

RRIRGRPPRLPRPRPRPGEFPRP
shrunken log2 fold change: 0.329

RRIRRRPPRLPRPRPRPKKRPRP
shrunken log2 fold change: 0.976

RRIRHRPPRLPRPRPRPEETPRP
shrunken log2 fold change: -0.00605

RRIRFRPPRLPRPRPRPQMPPRP
shrunken log2 fold change: -0.107

RRIRERPPRLPRPRPRPTNKPRP
shrunken log2 fold change: -0.533

RRIRTRPPRLPRPRPRPLETPRP
shrunken log2 fold change: 0.0461

RRIRRRPPRLPRPRPRPDQFPRP
shrunken log2 fold change: -0.0176

RRIRPRPPRLPRPRPRPMCEPRP
shrunken log2 fold change: -0.0631

RRIRHRPPRLPRPRPRPGCAPRP
shrunken log2 fold change: 0.124

RRIRFRPPRLPRPRPRPCWFPRP
shrunken log2 fold change: -0.509

RRIRARPPRLPRPRPRPYLAPRP
shrunken log2 fold change: -0.594

RRIRQRPPRLPRPRPRPPLKPRP
shrunken log2 fold change: -0.0174

RRIRTRPPRLPRPRPRPSQFPRP
shrunken log2 fold change: -0.302

RRIRIRPPRLPRPRPRPHDSPRP
shrunken log2 fold change: -0.398

RRIRFRPPRLPRPRPRPCLYPRP
shrunken log2 fold change: -0.881

RRIRNRPPRLPRPRPRPKCEPRP
shrunken log2 fold change: -0.0549

RRIRKRPPRLPRPRPRPRCVPRP
shrunken log2 fold change: 0.276

RRIRYRPPRLPRPRPRPTFHPRP
shrunken log2 fold change: -0.649

RRIRHRPPRLPRPRPRPNDSPRP
shrunken log2 fold change: -0.072

RRIRGRPPRLPRPRPRPSREPRP
shrunken log2 fold change: 0.51

RRIRTRPPRLPRPRPRPQSWPRP
shrunken log2 fold change: 0.234

RRIRKRPPRLPRPRPRPDRHPRP
shrunken log2 fold change: -0.091

RRIRDRPPRLPRPRPRPATGPRP
shrunken log2 fold change: 0.312

RRIRSRPPRLPRPRPRPIMHPRP
shrunken log2 fold change: -0.455

RRIRFRPPRLPRPRPRPFSLPRP
shrunken log2 fold change: -0.375

RRIRPRPPRLPRPRPRPIIIPRP
shrunken log2 fold change: -0.593

RRIRARPPRLPRPRPRPIIMPRP
shrunken log2 fold change: -0.258

RRIRSRPPRLPRPRPRPEMAPRP
shrunken log2 fold change: 1.22
